Experiments:
Assay in all cases: cell-based or functional assay
[1] = molecular target: SARS-CoV-2 BA.1.1 spike protein (authentic virus) (SARS-CoV-2) (UniProt P0DTC2)
[2] = molecular target: SARS-CoV-2 BA.2.12.1 spike protein (authentic virus) (SARS-CoV-2) (UniProt P0DTC2)
[3] = molecular target: SARS-CoV-2 BA.1 spike protein (authentic virus) (SARS-CoV-2) (UniProt P0DTC2)
[4] = molecular target: SARS-CoV-2 BA.5 spike protein (authentic virus) (SARS-CoV-2) (UniProt P0DTC2)
[5] = molecular target: SARS-CoV-2 Alpha spike protein (authentic virus) (SARS-CoV-2) (UniProt P0DTC2)
[6] = molecular target: SARS-CoV-2 BA.2 spike protein (authentic virus) (SARS-CoV-2) (UniProt P0DTC2)

cilgavimab (AZD1061) (antibody)
Authentic Virus Neutralization IC50 [1]: > 10000 ng/mL | Authentic Virus Neutralization IC50 [2]: 29 ng/mL | Authentic Virus Neutralization IC50 [3]: 3780 ng/mL | Authentic Virus Neutralization IC50 [4]: 131 ng/mL | Authentic Virus Neutralization IC50 [5]: 6 ng/mL | Authentic Virus Neutralization IC50 [6]: 21 ng/mL

Source: patent US20250289871A1
